In patent publication US20150147274A1 (CANCER RESEARCH TECHNOLOGY, published 2015):
Residue numbers refer to the chain shown, from its start.

B1: 112_H12 (scFv)
scFv: QMQLVQSGAEVKKPGAPVKVSCKVSGYTFTDYYMHWVQQAPGKGLEWMGLVDPEDGETIYAEKFQGRVTITADTSTDTAYMELSSLRSEDTAVYYCATDATTPYWFPYKWGQGTLVTVSSLEGGGGSGGGGSGGGASDIQMTQSPSSLSASVGDRVTITCQASQDISNYLNWYQQKPGRAPKVLIYDASNLETGVPSRFSGSGSGTEFTLTISNLRPDDFATYYCQQGDSFPLTFGGGTKVEIK
notes: not shown: 6xHis/tri-FLAG tags
B2: 111_E12 (scFv)
scFv: B1 scFv with F106S, Y108W, K109V
notes: as for B1
B3: 112_G11 (scFv)
scFv: B1 scFv with K109T
notes: as for B1
B4: 111_D11 (scFv)
scFv: B1 scFv with F106G, P107M, Y108M, K109R
notes: as for B1
B5: 111_E6 (scFv)
scFv: B1 scFv with F106G, P107M, Y108A, K109V
notes: as for B1
B6: 112_H7 (scFv)
scFv: B1 scFv with F106G, P107V, Y108Q, K109S
notes: as for B1
B7: 111_E11 (scFv)
scFv: B1 scFv with F106G, P107M, Y108R, K109E
notes: as for B1
B8: 112_G4 (scFv)
scFv: B1 scFv with F106G, P107A, Y108Q, K109S
notes: as for B1
B9: 111_E4 (scFv)
scFv: B1 scFv with F106G, P107I, Y108E, K109V
notes: as for B1
B10: 112_H11 (scFv)
scFv: B1 scFv with Y108Q, K109V
notes: as for B1
B11: 112_H5 (scFv)
scFv: B1 scFv with F106G, P107M, Y108Q, K109A
notes: as for B1
B12: 112_H6 (scFv)
scFv: B1 scFv with F106G, P107M, Y108M, K109E
notes: as for B1
B13: 111_E7 (scFv)
scFv: B1 scFv with F106G, P107M, Y108M, K109M
notes: as for B1
B14: 112_G5 (scFv)
scFv: B1 scFv with F106G, P107M, Y108R, K109S
notes: as for B1
B15: 112_H8 (scFv)
scFv: B1 scFv with F106L, Y108L, K109Y
notes: as for B1
B16: 112_G7 (scFv)
scFv: B1 scFv with Y108Q, K109T
notes: as for B1
B17: 111_D8 (scFv)
scFv: B1 scFv with F106G, P107M, Y108S, K109W
notes: as for B1
B18: 111_E8 (scFv)
scFv: B1 scFv with K109R
notes: as for B1
B19: 112_G9 (scFv)
scFv: B1 scFv with F106G, P107M, Y108Q, K109R
notes: as for B1
B20: 112_H1 (scFv)
scFv: B1 scFv with F106G, P107A, Y108A, K109V
notes: as for B1
B21: 111_D4 (scFv)
scFv: B1 scFv with F106G, P107M, Y108W, K109V
notes: as for B1
B22: 112_F12 (scFv)
scFv: B1 scFv with F106G, P107M, Y108Q, K109W
notes: as for B1
B23: 112_F1 (scFv)
scFv: B1 scFv with F106G, P107M, Y108A, K109R
notes: as for B1
B24: 112_H4 (scFv)
scFv: B1 scFv with F106G, P107M, Y108W
notes: as for B1
B25: 111_E5 (scFv)
scFv: B1 scFv with F106G, P107M, Y108C, K109E
notes: as for B1
B26: 111_E3 (scFv)
scFv: B1 scFv with Y108V, K109E
notes: as for B1
B27: 112_G3 (scFv)
scFv: B1 scFv with F106G, P107M, Y108S, K109A
notes: as for B1
B28: 112_F4 (scFv)
scFv: B1 scFv with F106G, P107M, Y108A, K109D
notes: as for B1
B29: 112_F8 (scFv)
scFv: B1 scFv with F106T, Y108F, K109L
notes: as for B1
B30: 111_D5 (scFv)
scFv: B1 scFv with Y108A, K109V
notes: as for B1
B31: 111_D7 (scFv)
scFv: B1 scFv with K109A
notes: as for B1
B32: 111_E10 (scFv)
scFv: B1 scFv with F106Y, K109A
notes: as for B1
B33: 112_H9 (scFv)
scFv: B1 scFv with K109S
notes: as for B1
B34: 112_F11 (scFv)
scFv: B1 scFv with F106G, P107M, Y108M, K109Q
notes: as for B1
B35: 112_G6 (scFv)
scFv: B1 scFv with Y108F, K109V
notes: as for B1
B36: 112_H10 (scFv)
scFv: B1 scFv with F106G, P107I, Y108R
notes: as for B1
B37: 110_A06 Fab (His/tri-FLAG tagged, hinged) (Fab, V domains shown)
VH: QMQLVQSGAEVKKPGAPVKVSCKVSGYTFTDYYMHWVQQAPGKGLEWMGLVDPEDGETIYAEKFQGRVTITADTSTDTAYMELSSLRSEDTAVYYCATDATTPYWGMQLWGQGTLVTVSS
VL: DIQMTQSPSSLSASVGDRVTITCQASQDISNYLNWYQQKPGRAPKVLIYDASNLETGVPSRFSGSGSGTEFTLTISNLRPDDFATYYCQQGDSFPLTFGGGTKVEIK
notes: Fab from pBIOCAM7-3F, hinged, hexahistidine and tri-FLAG tags on the heavy chain
B38: 110_A10 Fab (His/tri-FLAG tagged, hinged) (Fab, V domains shown)
VH: B37 VH with L109T
VL: B37 VL
notes: as for B37
B39: 111_D06 Fab (His/tri-FLAG tagged, hinged) (Fab, V domains shown)
VH: B37 VH with Q108W, L109Q
VL: B37 VL
notes: as for B37
B40: 110_A12 Fab (His/tri-FLAG tagged, hinged) (Fab, V domains shown)
VH: B37 VH with G106F, M107P, Q108R, L109E
VL: B37 VL
notes: as for B37
B41: 107_A01 scFv (6xHis/tri-Flag tags) (scFv)
scFv: B1 scFv with F106G, P107M, Y108V, K109S
notes: 7A2 derivative, only VH CDR3 changed; not shown: 6xHis/tri-FLAG tags of pSANG10-3F
B42: 112_G01 scFv (6xHis/tri-Flag tags) (scFv)
scFv: B1 scFv with F106G, P107M, Y108W, K109H
notes: as for B1
B43: 110_A10 scFv (6xHis/tri-Flag tags) (scFv)
scFv: B1 scFv with F106G, P107M, Y108Q, K109T
notes: as for B41
B44: 107_A08 scFv (6xHis/tri-Flag tags) (scFv)
scFv: B1 scFv with F106G, P107M, Y108V, K109E
notes: as for B41
B45: 107_A07 scFv (6xHis/tri-Flag tags) (scFv)
scFv: B1 scFv with F106G, P107M, Y108M, K109W
notes: as for B41
B46: 110_A06 scFv (6xHis/tri-Flag tags) (scFv)
scFv: B1 scFv with F106G, P107M, Y108Q, K109L
notes: 7A2 derivative, only VH CDR3 changed; also called 110_A6; not shown: 6xHis/tri-FLAG tags of pSANG10-3F
B47: 111_D06 scFv (6xHis/tri-Flag tags) (scFv)
scFv: B1 scFv with F106G, P107M, Y108W, K109Q
notes: as for B41
B48: 110_A01 scFv (6xHis/tri-Flag tags) (scFv)
scFv: B1 scFv with K109L
notes: 7A2 derivative, only VH CDR3 changed; also called 110_A1; not shown: 6xHis/tri-FLAG tags of pSANG10-3F
B49: 110_A12 scFv (6xHis/tri-Flag tags) (scFv)
scFv: B1 scFv with Y108R, K109E
notes: as for B41

Molecular target: T1, MET928 (cMET protein derived from construct 25-928) (human, UniProt P08581 25-928)
T1 construct: MET ectodomain, residues 1-24 are the leader; produced in Lec 8 cells; background text says the ectodomain is furin-cleaved into alpha (25-307) and beta chains; biotinylated form used in selections; also called MET928 extracellular domain; Met extracellular domain
T1 sequence (P08581 25-928): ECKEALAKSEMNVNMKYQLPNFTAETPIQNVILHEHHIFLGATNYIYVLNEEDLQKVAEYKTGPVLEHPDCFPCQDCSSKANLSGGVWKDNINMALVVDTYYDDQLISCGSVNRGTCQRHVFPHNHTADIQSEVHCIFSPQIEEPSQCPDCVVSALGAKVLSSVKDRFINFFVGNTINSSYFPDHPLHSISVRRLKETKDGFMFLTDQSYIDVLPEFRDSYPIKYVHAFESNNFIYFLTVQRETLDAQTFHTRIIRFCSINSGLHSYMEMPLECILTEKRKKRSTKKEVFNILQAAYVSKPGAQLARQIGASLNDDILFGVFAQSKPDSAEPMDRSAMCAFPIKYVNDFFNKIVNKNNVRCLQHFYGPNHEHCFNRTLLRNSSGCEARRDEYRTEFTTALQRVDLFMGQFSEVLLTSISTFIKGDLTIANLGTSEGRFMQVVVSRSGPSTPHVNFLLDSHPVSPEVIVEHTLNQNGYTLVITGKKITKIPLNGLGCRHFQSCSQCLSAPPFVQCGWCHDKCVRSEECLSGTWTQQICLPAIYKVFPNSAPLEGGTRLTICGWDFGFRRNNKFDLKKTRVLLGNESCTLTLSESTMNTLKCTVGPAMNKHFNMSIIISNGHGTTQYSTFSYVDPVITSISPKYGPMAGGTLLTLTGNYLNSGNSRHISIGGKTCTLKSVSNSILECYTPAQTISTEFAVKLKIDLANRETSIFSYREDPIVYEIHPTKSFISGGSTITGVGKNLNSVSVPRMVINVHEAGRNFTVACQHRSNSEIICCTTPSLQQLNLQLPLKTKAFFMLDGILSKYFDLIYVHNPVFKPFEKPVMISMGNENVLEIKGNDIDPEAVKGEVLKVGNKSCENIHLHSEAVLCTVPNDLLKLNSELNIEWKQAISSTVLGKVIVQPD
Test: ELISA, soluble scFv

Binder	binding result
B1	binds
B2	binds
B3	binds
B4	binds
B5	binds
B6	binds
B7	binds
B8	binds
B9	binds
B10	binds
B11	binds
B12	binds
B13	binds
B14	binds
B15	binds
B16	binds
B17	binds
B18	binds

Binder	binding result
B19	binds
B20	binds
B21	binds
B22	binds
B23	binds
B24	binds
B25	binds
B26	binds
B27	binds
B28	binds
B29	binds
B30	binds
B31	binds
B32	binds
B33	binds
B34	binds
B35	binds
B36	binds

Molecular target: T1, MET928 (cMET protein derived from …)
Test: Biacore SPR, MET-928 on chip, Fab format
Description: (§1) The binding characteristics of 7A2 and its derivatives were measured using a GE Healthcare Biacore biosensor.

Binder	Kd	koff	kon
B37	1.9 nM	0.00128 s⁻¹	677000 M⁻¹ s⁻¹
B38	2.23 nM	0.00168 s⁻¹	756000 M⁻¹ s⁻¹
B39	2.29 nM	0.00197 s⁻¹	860000 M⁻¹ s⁻¹
B40	2.79 nM	0.00161 s⁻¹	577000 M⁻¹ s⁻¹

Molecular target: T1, MET928 (cMET protein derived from …)
Test: Biacore SPR, MET-928 on chip, scFv format
Description: as §1

Binder	Kd	koff	kon
B41	0.0652 nM	0.00321 s⁻¹	4.92e+07 M⁻¹ s⁻¹
B42	0.786 nM	0.00238 s⁻¹	3.03e+06 M⁻¹ s⁻¹
B43	0.301 nM	0.00273 s⁻¹	9.08e+06 M⁻¹ s⁻¹
B44	0.274 nM	0.00691 s⁻¹	2.52e+07 M⁻¹ s⁻¹
B45	0.346 nM	0.00115 s⁻¹	3.31e+06 M⁻¹ s⁻¹
B46	0.121 nM	0.00417 s⁻¹	3.45e+07 M⁻¹ s⁻¹
B47	0.183 nM	0.00549 s⁻¹	3.01e+07 M⁻¹ s⁻¹
B48	0.322 nM	0.00163 s⁻¹	5.05e+06 M⁻¹ s⁻¹
B49	0.958 nM	0.00156 s⁻¹	1.63e+06 M⁻¹ s⁻¹
